Results: US20220275101A1, “Use of Approved Anti-CD38 Antibody Drug Product to Treat Light Chain Amyloidosis” (Janssen Biotech, Inc., priority 2021, published 2022)
Marks after values point to notes of the source that are not given here.

Experiments:
[1] = system: relapsed or refractory multiple myeloma; assay: COLUMBA monotherapy, efficacy; type: in vivo, human
Excerpt: The major efficacy outcome measures were ORR by the IMWG response criteria and maximum Ctrough at pre-dose Cycle 3 Day 1 [see Clinical Pharmacology (12.3)]. Randomization was stratified by body weight, myeloma type, and number of prior lines of therapy.

[2] = COLUMBA monotherapy, safety (relapsed/refractory multiple myeloma)
Method: FASPRO 1,800 mg/30,000 units administered subcutaneously or daratumumab 16 mg/kg administered intravenously; each administered once weekly from weeks 1 to 8, once every 2 weeks from weeks 9 to 24 and once every 4 weeks starting with week 25 until disease progression or unacceptable toxicity.

[3] = Daratumumab pharmacokinetics in patients with multiple myeloma; type: in vivo, human
[4] = target: T1, CD38 on red blood cells (RBCs) (Homo sapiens, UniProt P28907); assay: Interference with Indirect Antiglobulin Test (Indirect Coombs test)
T1 construct: endogenous in cells; host or cells: red blood cells (reagent RBCs used in blood-bank compatibility testing)
Excerpt: Daratumumab binds to CD38 on red blood cells (RBCs) and results in a positive Indirect Antiglobulin Test (Indirect Coombs test). Daratumumab-mediated positive indirect antiglobulin test may persist for up to 6 months after the last daratumumab administration. Daratumumab bound to RBCs masks detection of antibodies to minor antigens in the patient's serum [see References (15)]. The determination of a patient's ABO and Rh blood type are not impacted [see Drug Interactions (7.1)].
Daratumumab binds to CD38 on RBCs and interferes with compatibility testing, including antibody screening and cross matching. Daratumumab interference mitigation methods include treating reagent RBCs with dithiothreitol (DTT) to disrupt daratumumab binding [see References (15)] or genotyping. Since the Kell blood group system is also sensitive to DTT treatment, supply K-negative units after ruling out or identifying alloantibodies using DTT-treated RBCs.

[5] = Daratumumab pharmacokinetics after DARZALEX FASPRO, population not specified or pooled; type: in vivo, human; conditions: DARZALEX FASPRO as monotherapy or combination therapy
[6] = Daratumumab pharmacokinetics in patients with light chain (AL) amyloidosis; type: in vivo, human
[7] = Hyaluronidase developmental toxicity in mice; type: in vivo
Excerpt: There were no effects on pre- and post-natal development through sexual maturity in offspring of mice treated daily from implantation through lactation with 990,000 U/kg hyaluronidase subcutaneously, which is 134 times higher than the human doses.

[8] = Hyaluronidase subcutaneous exposure and toxicity in monkeys; type: in vivo
Method: No carcinogenicity, genotoxicity, or fertility studies were conducted for recombinant human hyaluronidase. […] As hyaluronidase is a recombinant form of the endogenous human hyaluronidase, no carcinogenicity, mutagenesis, or effects on fertility are expected.

[9] = Hyaluronidase effect on permeability of the subcutaneous tissue
Excerpt: Hyaluronan is a polysaccharide found in the extracellular matrix of the subcutaneous tissue. It is depolymerized by the naturally occurring enzyme hyaluronidase. Unlike the stable structural components of the interstitial matrix, hyaluronan has a half-life of approximately 0.5 days. Hyaluronidase increases permeability of the subcutaneous tissue by depolymerizing hyaluronan. In the doses administered, hyaluronidase in DARZALEX FASPRO acts locally. The effects of hyaluronidase are reversible and permeability of the subcutaneous tissue is restored within 24 to 48 hours.

[10] = monkeys, 22,000 U/kg/week subcutaneously for 39 weeks

Molecule: Intravenous Daratumumab: daratumumab 16 mg/kg administered intravenously, comparator arm in COLUMBA
- CR or better, % [1]: 2.7%
- Median progression-free survival [1]: 6.1 months
- Partial response (PR), % [1]: 20%
- Very good partial response (VGPR), % [1]: 14%
- Overall response (sCR + CR + VGPR + PR), % ([1]; intent-to-treat population): 37%
- Back pain, All Grades ([2]; monotherapy): 12%
- Back pain, Grade ≥ 3 ([2]; monotherapy): 3^# %
- Chills, All Grades ([2]; monotherapy): 12%
- Chills, Grade ≥ 3 ([2]; monotherapy): 1^# %
- Cough, All Grades ([2]; monotherapy): 14%
- Cough, Grade ≥ 3 ([2]; monotherapy): 0^ %
- Diarrhea, All Grades ([2]; monotherapy): 11%
- Diarrhea, Grade ≥ 3 ([2]; monotherapy): 0.4^# %
- Dyspnea, All Grades ([2]; monotherapy): 11%
- Dyspnea, Grade ≥ 3 ([2]; monotherapy): 1^# %
- Fatigue, All Grades ([2]; monotherapy): 16%
- Fatigue, Grade ≥ 3 ([2]; monotherapy): 2^# %
- Infusion reactions, All Grades ([2]; monotherapy): 34%
- Infusion reactions, Grade ≥ 3 ([2]; monotherapy): 5^# %
- Nausea, All Grades ([2]; monotherapy): 11%
- Nausea, Grade ≥ 3 ([2]; monotherapy): 0.4^# %
- Pneumonia, All Grades ([2]; monotherapy): 10%
- Pneumonia, Grade ≥ 3 ([2]; monotherapy): 6^@ %
- Pyrexia, All Grades ([2]; monotherapy): 13%
- Pyrexia, Grade ≥ 3 ([2]; monotherapy): 1^# %
- Upper respiratory tract infection, All Grades ([2]; monotherapy): 22%
- Upper respiratory tract infection, Grade ≥ 3 ([2]; monotherapy): 1^# %
- Decreased hemoglobin, All Grades ([2]; worsening from baseline): 39%
- Decreased hemoglobin, Grades 3-4 ([2]; worsening from baseline): 16%
- Decreased leukocytes, All Grades ([2]; worsening from baseline): 57%
- Decreased leukocytes, Grades 3-4 ([2]; worsening from baseline): 14%
- Decreased lymphocytes, All Grades ([2]; worsening from baseline): 56%
- Decreased lymphocytes, Grades 3-4 ([2]; worsening from baseline): 36%
- Decreased neutrophils, All Grades ([2]; worsening from baseline): 43%
- Decreased neutrophils, Grades 3-4 ([2]; worsening from baseline): 11%
- Decreased platelets, All Grades ([2]; worsening from baseline): 45%
- Decreased platelets, Grades 3-4 ([2]; worsening from baseline): 14%
- Observed mean ± SD max Ctrough after 8th dose ([3]; patients with multiple myeloma): 522 ± 226^a, b μg/mL

Molecule: Daratumumab: IgG1κ human monoclonal antibody that binds CD38; heavy chain SEQ ID NO: 12, light chain SEQ ID NO: 13
- estimated mean volume of distribution, peripheral compartment ([3]; multiple myeloma): 3.8 L
- estimated mean (CV %) elimination half-life associated with linear clearance ([3]; multiple myeloma, CV 22%): 20 days
- estimated mean (CV) volume of distribution for the central compartment ([3]; multiple myeloma, CV 37%): 5.2 L
- estimated mean (CV %) linear clearance ([3]; multiple myeloma, CV 59%): 119 mL/day
- persistence of positive indirect antiglobulin test after the last administration [4]: up to 6 months
- Indirect Antiglobulin Test (Indirect Coombs test) result ([4]; binding to CD38 on RBCs): positive
- effect of sex, age (33 to 92 years), renal impairment (CLcr 15 to 89 mL/min) and mild hepatic impairment on pharmacokinetics [5]: no clinically meaningful effect
- estimated mean volume of distribution ([6]; CV 28%): 10.8 L
- estimated mean (CV %) linear clearance ([6]; CV 42%): 210 mL/day
- estimated mean (CV %) elimination half-life associated with linear clearance ([6]; CV 74%): 28 days

B1: hyaluronidase: recombinant human hyaluronidase rHuPH20, SEQ ID NO: 22, residues 36-482 of wild type human hyaluronidase (protein, listed as Homo sapiens)
chain: LNFRAPPVIPNVPFLWAWNAPSEFCLGKFDEPLDMSLFSFIGSPRINATGQGVTIFYVDRLGYYPYIDSITGVTVNGGIPQKISLQDHLDKAKKDITFYMPVDNLGMAVIDWEEWRPTWARNWKPKDVYKNRSIELVQQQNVQLSLTEATEKAKQEFEKAGKDFLVETIKLGKLLRPNHLWGYYLFPDCYNHHYKKPGYNGSCFNVEIKRNDDLSWLWNESTALYPSIYLNTQQSPVAATLYVRNRVREAIRVSKIPDAKSPLPVFAYTRIVFTDQVLKFLSQDELVYTFGETVALGASGIVIWGTLSIMRSMKSCLLLDNYMETILNPYIINVTLAAKMCSQVLCQEQGVCIRKNWNSSDYLHLNPDNFAIQLEKGGKFTVRGKPTLEDLEQFSEKFYCSCYSTLSCKEKADVKDTDAVDVCIADGVCIDAFLKPPMETEEPQIFY
- effects on post-natal development through sexual maturity in offspring ([7]; mice treated daily during lactation, 990,000 U/kg subcutaneously): no effects
- effects on pre- and post-natal development through sexual maturity in offspring ([7]; mice treated daily from implantation through lactation, 990,000 U/kg subcutaneously): no effects
- effects on embryo-fetal development ([7]; pregnant mice, 330,000 U/kg subcutaneously daily during organogenesis): no effects
- systemic exposure of hyaluronidase ([8]; monkeys, 22,000 U/kg subcutaneously (12 times the human dose)): No systemic exposure of hyaluronidase was detected
- effects on reproductive tissues and function [8, 10]: no effects
- systemic exposure of hyaluronidase [8, 10]: no systemic exposure
- time until permeability of the subcutaneous tissue is restored [9]: 24 to 48 h
